The record followed here is article PMC7616425 (2024).

For orientation: koff means the rate constant with which the complex falls apart.

Assay [1] addresses Alexa647-labeled RhoGDI1 L56V (bovine, UniProt P19803 1-204, L56V, Alexa647 acceptor (site not stated)). Put plainly: FRET.
Assay [2] concerns the target Alexa647-labeled RhoGDI1 L56A (bovine, UniProt P19803 1-204, L56A, Alexa647 acceptor (site not stated)). The assay is described as follows: FRET.

B1: Cy3-labeled, prenylated Cdc42 (natural protein)
chain: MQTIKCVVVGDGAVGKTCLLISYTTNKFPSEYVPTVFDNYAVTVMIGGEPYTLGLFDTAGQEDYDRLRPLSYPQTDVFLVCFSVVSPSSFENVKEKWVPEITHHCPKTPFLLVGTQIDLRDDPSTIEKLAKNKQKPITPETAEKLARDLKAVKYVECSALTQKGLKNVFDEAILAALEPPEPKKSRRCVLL
modifications: prenylated (residue not stated); Cy3 donor (site not stated)
Turning to B1, the koff in assay [1] was found to be 0.003 s⁻¹; in assay [2], 0.08 s⁻¹.
